Target: GST-poly (Glu,Tyr) fused protein
Sequence (chain, as listed by the source): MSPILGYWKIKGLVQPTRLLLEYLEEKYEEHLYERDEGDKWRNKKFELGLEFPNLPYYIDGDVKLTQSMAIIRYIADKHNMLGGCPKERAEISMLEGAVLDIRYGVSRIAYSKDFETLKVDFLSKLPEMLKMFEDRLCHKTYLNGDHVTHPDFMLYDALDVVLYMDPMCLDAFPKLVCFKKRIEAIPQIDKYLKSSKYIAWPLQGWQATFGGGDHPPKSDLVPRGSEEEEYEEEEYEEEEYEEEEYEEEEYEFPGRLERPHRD

B1: ErbB4 Kinase (intracellular domain, Cell Signaling Technology) (protein)
chain: RRKSIKKKRALRRFLETELVEPLTPSGTAPNQAQLRILKETELKRVKVLGSGAFGTVYKGIWVPEGETVKIPVAIKILNETTGPKANVEFMDEALIMASMDHPHLVRLLGVCLSPTIQLVTQLMPHGCLLEYVHEHKDNIGSQLLLNWCVQIAKGMMYLEERRLVHRDLAARNVLVKSPNHVKITDFGLARLLEGDEKEYNADGGKMPIKWMALECIHYRKFTHQSDVWSYGVTIWELMTFGGKPYDGIPTREIPDLLEKGERLPQPPICTIDVYMVMVKCWMIDADSRPKFKELAAEFSRMARDPQRYLVIQGDDRMKLPSPNDSKFFQNLLDEEDLEDMMDAEEYLVPQAFNIPPPIYTSRARIDSNRSEIGHSPPPAYTPMSGNQFVYRDGGFAAEQGVSVPYRAPTSTIPEAPVAQGATAEIFDDSCCNGTLRKPVAPHVQEDSSTQRYSADPTVFAPERSPRGELDEEGYMTPMRDKPKQEYLNPVEENPFVSRRKNGDLQALDNPEYHNASNGPPKAEDEYVNEPLYLNTFANTLGKAEYLKNNILSMPEKAKKAFDNPDYWNHSLPPRSTLQHPDYLQEYSTKYFYKQNGRIRPIVAENPEYLSEFSLKPGTVLPPPPYRHRNTVV
**Q.** How did the “band of phosphorylated GST-poly (Glu,Tyr) fused protein in Western blotting with anti-phosphotyrosine antibody” value (from here on “band of phosphorylated GST-poly”) turn out when B1 was run?
**A.** Its value is “In “+” of “i” to “vii”, a single band was seen at positions where a phosphorylated GST-poly (Glu,Tyr) fused protein appears”.

B2: IGF-1 Receptor Kinase (intracellular domain, Cell Signaling Technology) (protein)
chain: RKRNNSRLGNGVLYASVNPEYFSAADVYVPDEWEVAREKITMSRELGQGSFGMVYEGVAKGVVKDEPETRVAIKTVNEAASMRERIEFLNEASVMKEFNCHHVVRLLGVVSQGQPTLVIMELMTRGDLKSYLRSLRPEMENNPVLAPPSLSKMIQMAGEIADGMAYLNANKFVHRDLAARNCMVAEDFTVKIGDFGMTRDIYETDYYRKGGKGLLPVRWMSPESLKDGVFTTYSDVWSFGVVLWEIATLAEQPYQGLSNEQVLRFVMEGGLLDKPDNCPDMLFELMRMCWQYNPKMRPSFLEIISSIKEEMEPGFREVSFYYSEENKLPEPEELDLEPENMESVPLDPSASSSSLPLPDRHSGHKAENGPGPGVLVLRASFDERQPYAHMNGGRKNERALPLPQSSTC
**Q.** For B2, which “band of phosphorylated GST-poly” value is on record?
**A.** Its value is “In “+” of “i” to “vii”, a single band was seen at positions where a phosphorylated GST-poly (Glu,Tyr) fused protein appears”.

B3: PDGF Receptor β Kinase (intracellular domain, Cell Signaling Technology) (protein)
chain: RYEIRWKVIESVSSDGHEYIYVDPMQLPYDSTWELPRDQLVLGRTLGSGAFGQVVEATAHGLSHSQATMKVAVKMLKSTARSSEKQALMSELKIMSHLGPHLNVVNLLGACTKGGPIYIITEYCRYGDLVDYLHRNKHTFLQHHSDKRRPPSAELYSNALPVGLPLPSHVSLTGESDGGYMDMSKDESVDYVPMLDMKGDVKYADIESSNYMAPYDNYVPSAPERTCRATLINESPVLSYMDLVGFSYQVANGMEFLASKNCVHRDLAARNVLICEGKLVKICDFGLARDIMRDSNYISKGSTFLPLKWMAPESIFNSLYTTLSDVWSFGILLWEIFTLGGTPYPELPMNEQFYNAIKRGYRMAQPAHASDEIYEIMQKCWEEKFEIRPPFSQLVLLLERLLGEGYKKKYQQVDEEFLRSDHPAILRSQARLPGFHGLRSPLDTSSVLYTAVQPNEGDNDYIIPLPDPKPEVADEGPLEGSPSLASSTLNEVNTSSTISCDSPLEPQDEPEPEPQLELQVEPEPELEQLPDSGCPAPRAEAEDSFL
**Q.** Which “band of phosphorylated GST-poly” value does the source give for B3 here?
**A.** The value was “In “+” of “i” to “vii”, a single band was seen at positions where a phosphorylated GST-poly (Glu,Tyr) fused protein appears”.

B4: VEGF Receptor 1 Kinase (intracellular domain, Cell Signaling Technology) (protein)
chain: RKMKRSSSEIKTDYLSIIMDPDEVPLDEQCERLPYDASKWEFARERLKLGKSLGRGAFGKVVQASAFGIKKSPTCRTVAVKMLKEGATASEYKALMTELKILTHIGHHLNVVNLLGACTKQGGPLMVIVEYCKYGNLSNYLKSKRDLFFLNKDAALHMEPKKEKMEPGLEQGKKPRLDSVTSSESFASSGFQEDKSLSDVEEEEDSDGFYKEPITMEDLISYSFQVARGMEFLSSRKCIHRDLAARNILLSENNVVKICDFGLARDIYKNPDYVRKGDTRLPLKWMAPESIFDKIYSTKSDVWSYGVLLWEIFSLGGSPYPGVQMDEDFCSRLREGMRMRAPEYSTPEIYQIMLDCWHRDPKERPRFAELVEKLGDLLQANVQQDGKDYIPINAILTGNSGFTYSTPAFSEDFFKESISAPKFNSGSSDDVRYVNAFKFMSLERIKTFEELLPNATSMFDDYQGDSSTLLASPMLKRFTWTDSKPKASLKIDLRVTSKSKESGLSDVSRPSFCHSSCGHVSEGKRRFTYDHAELERKIACCSPPPDYNSVVLYSTPPI
**Q.** Which “band of phosphorylated GST-poly” value does the source give for B4 here?
**A.** Its value is “In “+” of “i” to “vii”, a single band was seen at positions where a phosphorylated GST-poly (Glu,Tyr) fused protein appears”.
